Test system: S. aureus
Assay: Proteinase K neutralization of lysostaphin activity in vitro
Format: cell-based
Settings: 10^5 S. aureus in PBS; lysostaphin 10 mcg and/or 10 mg/ml Proteinase K; 20 minutes at room temperature
Experimental: Lysostaphin (10 mcg) was added to some samples of 10^5 S. aureus in PBS in the presence or absence of 10 mg/ml Proteinase K. The samples were incubated for 20 minutes at room temperatures and then 100 microliter aliquots were plated on blood agar.

B1: Proteinase K: protease used at 10 mg/ml to neutralize lysostaphin (protein, UniProt P06873 106-384, looked up)
Proteinase K: AAQTNAPWGLARISSTSPGTSTYYYDESAGQGSCVYVIDTGIEASHPEFEGRAQMVKTYYYSSRDGNGHGTHCAGTVGSRTYGVAKKTQLFGVKVLDDNGSGQYSTIIAGMDFVASDKNNRNCPKGVVASLSLGGGYSSSVNSAAARLQSSGVMVAVAAGNNNADARNYSPASEPSVCTVGASDRYDRRSSFSNYGSVLDIFGPGTSILSTWIGGSTRSISGTSMATPHVAGLAAYLMTLGKTTAASACRYIADTANKGDLSNIPFGTVNLLAYNNYQA
  CFUs Recovered: 10^5 CFUs

Reference: US20030211995A1, “Methods and formulations for eradicating or alleviating staphylococcal nasal colonization using lysostaphin” (priority 2001, published 2003)
